Our source for the fold loss in IC80 activity values is US20230393135A1.

Assay [1] deals with SARS-CoV-2 S protein trimer with the K417N/E484K/N501Y mutations (present in the B.1.351 variant) (SARS-CoV-2) (UniProt P0DTC2).
Assay [2] concerns the target SARS-CoV-2 S protein trimer with the Δ69-70 Y453F mutations (present in the mink variant) (SARS-CoV-2) (UniProt P0DTC2).

Take REGN10933 neutralizing antibody: the values for the fold loss in IC80 activity in assay [1] and in assay [2] were 61 fold and 67 fold, respectively.
